This note sets out measurements from paper PMC10540216, “Activity Guided Azide-methyllysine Photo-trapping for Substrate Profiling of Lysine Demethylases” (Journal of the American Chemical Society, 2023).

B1: TCPQ_HUMAN (protein, UniProt P50990 2-548, looked up)
T-complex protein 1 subunit …: ALHVPKAPGFAQMLKEGAKHFSGLEEAVYRNIQACKELAQTTRTAYGPNGMNKMVINHLEKLFVTNDAATILRELEVQHPAAKMIVMASHMQEQEVGDGTNFVLVFAGALLELAEELLRIGLSVSEVIEGYEIACRKAHEILPNLVCCSAKNLRDIDEVSSLLRTSIMSKQYGNEVFLAKLIAQACVSIFPDSGHFNVDNIRVCKILGSGISSSSVLHGMVFKKETEGDVTSVKDAKIAVYSCPFDGMITETKGTVLIKTAEELMNFSKGEENLMDAQVKAIADTGANVVVTGGKVADMALHYANKYNIMLVRLNSKWDLRRLCKTVGATALPRLTPPVLEEMGHCDSVYLSEVGDTQVVVFKHEKEDGAISTIVLRGSTDNLMDDIERAVDDGVNTFKVLTRDKRLVPGGGATEIELAKQITSYGETCPGLEQYAIKKFAEAFEAIPRALAENSGVKANEVISKLYAVHQEGNKNVGLDIEAEVPAVKDMLEAGILDTYLGKYWAIKLATNAAVTVLRVDQIIMAKPAGGPKPPSGKKDWDDDQND
B2: TPP1_HUMAN (protein, UniProt O14773 196-563, looked up)
Tripeptidyl-peptidase 1: LHLGVTPSVIRKRYNLTSQDVGSGTSNNSQACAQFLEQYFHDSDLAQFMRLFGGNFAHQASVARVVGQQGRGRAGIEASLDVQYLMSAGANISTWVYSSPGRHEGQEPFLQWLMLLSNESALPHVHTVSYGDDEDSLSSAYIQRVNTELMKAAARGLTLLFASGDSGAGCWSVSGRHQFRPTFPASSPYVTTVGGTSFQEPFLITNEIVDYISGGGFSNVFPRPSYQEEAVTKFLSSSPHLPPSSYFNASGRAYPDVAALSDGYWVVSNRVPIPWVSGTSASTPVFGGILSLINEHRILSGRPPLGFLNPRLYQQHGAGLFDVTRGCHESCLDEEVEGQGFCSGPGWDPVTGWGTPNFPALLKTLLNP
B3: IDHP_HUMAN (protein, UniProt P48735 40-452, looked up)
Isocitrate dehydrogenase …: ADKRIKVAKPVVEMDGDEMTRIIWQFIKEKLILPHVDIQLKYFDLGLPNRDQTDDQVTIDSALATQKYSVAVKCATITPDEARVEEFKLKKMWKSPNGTIRNILGGTVFREPIICKNIPRLVPGWTKPITIGRHAHGDQYKATDFVADRAGTFKMVFTPKDGSGVKEWEVYNFPAGGVGMGMYNTDESISGFAHSCFQYAIQKKWPLYMSTKNTILKAYDGRFKDIFQEIFDKHYKTDFDKNKIWYEHRLIDDMVAQVLKSSGGFVWACKNYDGDVQSDILAQGFGSLGLMTSVLVCPDGKTIEAEAAHGTVTRHYREHQKGRPTSTNPIASIFAWTRGLEHRGKLDGNQDLIRFAQMLEKVCVETVESGAMTKDLAGCIHGLSNVKLNEHFLNTTDFLDTIKSNLDRALGRQ
B4: MCCB_HUMAN (protein, UniProt Q9HCC0 23-563, looked up)
Methylcrotonoyl-CoA …: YHGDSVASLGTQPDLGSALYQENYKQMKALVNQLHERVEHIKLGGGEKARALHISRGKLLPRERIDNLIDPGSPFLELSQFAGYQLYDNEEVPGGGIITGIGRVSGVECMIIANDATVKGGAYYPVTVKKQLRAQEIAMQNRLPCIYLVDSGGAYLPRQADVFPDRDHFGRTFYNQAIMSSKNIAQIAVVMGSCTAGGAYVPAMADENIIVRKQGTIFLAGPPLVKAATGEEVSAEDLGGADLHCRKSGVSDHWALDDHHALHLTRKVVRNLNYQKKLDVTIEPSEEPLFPADELYGIVGANLKRSFDVREVIARIVDGSRFTEFKAFYGDTLVTGFARIFGYPVGIVGNNGVLFSESAKKGTHFVQLCCQRNIPLLFLQNITGFMVGREYEAEGIAKDGAKMVAAVACAQVPKITLIIGGSYGAGNYGMCGRAYSPRFLYIWPNARISVMGGEQAANVLATITKDQRAREGKQFSSADEAALKEPIIKKFEEEGNPYYSSARVWDDGIIDPADTRLVLGLSFSAALNAPIEKTDFGIFRM
B5: LYSC_HUMAN (protein, UniProt P61626 19-148, looked up)
Lysozyme C: KVFERCELARTLKRLGMDGYRGISLANWMCLAKWESGYNTRATNYNAGDRSTDYGIFQINSRYWCNDGKTPGAVNACHLSCSALLQDNIADAVACAKRVVRDPQGIRAWVAWRNRCQNRDVRQYVQGCGV
B6: PDC6I_HUMAN (protein, UniProt Q8WUM4 2-868, looked up)
Programmed cell death …: ATFISVQLKKTSEVDLAKPLVKFIQQTYPSGGEEQAQYCRAAEELSKLRRAAVGRPLDKHEGALETLLRYYDQICSIEPKFPFSENQICLTFTWKDAFDKGSLFGGSVKLALASLGYEKSCVLFNCAALASQIAAEQNLDNDEGLKIAAKHYQFASGAFLHIKETVLSALSREPTVDISPDTVGTLSLIMLAQAQEVFFLKATRDKMKDAIIAKLANQAADYFGDAFKQCQYKDTLPKEVFPVLAAKHCIMQANAEYHQSILAKQQKKFGEEIARLQHAAELIKTVASRYDEYVNVKDFSDKINRALAAAKKDNDFIYHDRVPDLKDLDPIGKATLVKSTPVNVPISQKFTDLFEKMVPVSVQQSLAAYNQRKADLVNRSIAQMREATTLANGVLASLNLPAAIEDVSGDTVPQSILTKSRSVIEQGGIQTVDQLIKELPELLQRNREILDESLRLLDEEEATDNDLRAKFKERWQRTPSNELYKPLRAEGTNFRTVLDKAVQADGQVKECYQSHRDTIVLLCKPEPELNAAIPSANPAKTMQGSEVVNVLKSLLSNLDEVKKEREGLENDLKSVNFDMTSKFLTALAQDGVINEEALSVTELDRVYGGLTTKVQESLKKQEGLLKNIQVSHQEFSKMKQSNNEANLREEVLKNLATAYDNFVELVANLKEGTKFYNELTEILVRFQNKCSDIVFARKTERDELLKDLQQSIAREPSAPSIPTPAYQSSPAGGHAPTPPTPAPRTMPPTKPQPPARPPPPVLPANRAPSATAPSPVGAGTAAPAPSQTPGSAPPPQAQGPPYPTYPGYPGYCQMPMPMGYNPYAYGQYNMPYPPVYHQSPGQAPYPGPQQPSYPFPQPPQQSYYPQQ
B7: RAD50_HUMAN (protein, UniProt Q92878 1-1312, looked up)
DNA repair protein RAD50: MSRIEKMSILGVRSFGIEDKDKQIITFFSPLTILVGPNGAGKTTIIECLKYICTGDFPPGTKGNTFVHDPKVAQETDVRAQIRLQFRDVNGELIAVQRSMVCTQKSKKTEFKTLEGVITRTKHGEKVSLSSKCAEIDREMISSLGVSKAVLNNVIFCHQEDSNWPLSEGKALKQKFDEIFSATRYIKALETLRQVRQTQGQKVKEYQMELKYLKQYKEKACEIRDQITSKEAQLTSSKEIVKSYENELDPLKNRLKEIEHNLSKIMKLDNEIKALDSRKKQMEKDNSELEEKMEKVFQGTDEQLNDLYHNHQRTVREKERKLVDCHRELEKLNKESRLLNQEKSELLVEQGRLQLQADRHQEHIRARDSLIQSLATQLELDGFERGPFSERQIKNFHKLVRERQEGEAKTANQLMNDFAEKETLKQKQIDEIRDKKTGLGRIIELKSEILSKKQNELKNVKYELQQLEGSSDRILELDQELIKAERELSKAEKNSNVETLKMEVISLQNEKADLDRTLRKLDQEMEQLNHHTTTRTQMEMLTKDKADKDEQIRKIKSRHSDELTSLLGYFPNKKQLEDWLHSKSKEINQTRDRLAKLNKELASSEQNKNHINNELKRKEEQLSSYEDKLFDVCGSQDFESDLDRLKEEIEKSSKQRAMLAGATAVYSQFITQLTDENQSCCPVCQRVFQTEAELQEVISDLQSKLRLAPDKLKSTESELKKKEKRRDEMLGLVPMRQSIIDLKEKEIPELRNKLQNVNRDIQRLKNDIEEQETLLGTIMPEEESAKVCLTDVTIMERFQMELKDVERKIAQQAAKLQGIDLDRTVQQVNQEKQEKQHKLDTVSSKIELNRKLIQDQQEQIQHLKSTTNELKSEKLQISTNLQRRQQLEEQTVELSTEVQSLYREIKDAKEQVSPLETTLEKFQQEKEELINKKNTSNKIAQDKLNDIKEKVKNIHGYMKDIENYIQDGKDDYKKQKETELNKVIAQLSECEKHKEKINEDMRLMRQDIDTQKIQERWLQDNLTLRKRNEELKEVEEERKQHLKEMGQMQVLQMKSEHQKLEENIDNIKRNHNLALGRQKGYEEEIIHFKKELREPQFRDAEEKYREMMIVMRTTELVNKDLDIYYKTLDQAIMKFHSMKMEEINKIIRDLWRSTYRGQDIEYIEIRSDADENVSASDKRRNYNYRVVMLKGDTALDMRGRCSAGQKVLASLIIRLALAETFCLNCGIIALDEPTTNLDRENIESLAHALVEIIKSRSQQRNFQLLVITHDEDFVELLGRSEYVEKFYRIKKNIDQCSEIVKCSVSSLGFNVH
B8: PUR8_HUMAN (protein, UniProt P30566 2-484, looked up)
Adenylosuccinate lyase: AAGGDHGSPDSYRSPLASRYASPEMCFVFSDRYKFRTWRQLWLWLAEAEQTLGLPITDEQIQEMKSNLENIDFKMAAEEEKRLRHDVMAHVHTFGHCCPKAAGIIHLGATSCYVGDNTDLIILRNALDLLLPKLARVISRLADFAKERASLPTLGFTHFQPAQLTTVGKRCCLWIQDLCMDLQNLKRVRDDLRFRGVKGTTGTQASFLQLFEGDDHKVEQLDKMVTEKAGFKRAFIITGQTYTRKVDIEVLSVLASLGASVHKICTDIRLLANLKEMEEPFEKQQIGSSAMPYKRNPMRSERCCSLARHLMTLVMDPLQTASVQWFERTLDDSANRRICLAEAFLTADTILNTLQNISEGLVVYPKVIERRIRQELPFMATENIIMAMVKAGGSRQDCHEKIRVLSQQAASVVKQEGGDNDLIERIQVDAYFSPIHSQLDHLLDPSSFTGRASQQVQRFLEEEVYPLLKPYESVMKVKAELCL
B9: GLYM_HUMAN (protein, UniProt P34897 30-504, looked up)
Serine …: NAAQTQTGEANRGWTGQESLSDSDPEMWELLQREKDRQCRGLELIASENFCSRAALEALGSCLNNKYSEGYPGKRYYGGAEVVDEIELLCQRRALEAFDLDPAQWGVNVQPYSGSPANLAVYTALLQPHDRIMGLDLPDGGHLTHGYMSDVKRISATSIFFESMPYKLNPKTGLIDYNQLALTARLFRPRLIIAGTSAYARLIDYARMREVCDEVKAHLLADMAHISGLVAAKVIPSPFKHADIVTTTTHKTLRGARSGLIFYRKGVKAVDPKTGREIPYTFEDRINFAVFPSLQGGPHNHAIAAVAVALKQACTPMFREYSLQVLKNARAMADALLERGYSLVSGGTDNHLVLVDLRPKGLDGARAERVLELVSITANKNTCPGDRSAITPGGLRLGAPALTSRQFREDDFRRVVDFIDEGVNIGLEVKSKTAKLQDFKSFLLKDSETSQRLANLRQRVEQFARAFPMPGFDEH
B10: CBS_HUMAN (protein, UniProt P35520 1-551, looked up)
Cystathionine beta-synthase: MPSETPQAEVGPTGCPHRSGPHSAKGSLEKGSPEDKEAKEPLWIRPDAPSRCTWQLGRPASESPHHHTAPAKSPKILPDILKKIGDTPMVRINKIGKKFGLKCELLAKCEFFNAGGSVKDRISLRMIEDAERDGTLKPGDTIIEPTSGNTGIGLALAAAVRGYRCIIVMPEKMSSEKVDVLRALGAEIVRTPTNARFDSPESHVGVAWRLKNEIPNSHILDQYRNASNPLAHYDTTADEILQQCDGKLDMLVASVGTGGTITGIARKLKEKCPGCRIIGVDPEGSILAEPEELNQTEQTTYEVEGIGYDFIPTVLDRTVVDKWFKSNDEEAFTFARMLIAQEGLLCGGSAGSTVAVAVKAAQELQEGQRCVVILPDSVRNYMTKFLSDRWMLQKGFLKEEDLTEKKPWWWHLRVQELGLSAPLTVLPTITCGHTIEILREKGFDQAPVVDEAGVILGMVTLGNMLSSLLAGKVQPSDQVGKVIYKQFKQIRLTDTLGRLSHILEMDHFALVVHEQIQYHSTGKSSQRQMVFGVVTAIDLLNFVAAQERDQK

For the test, the system named is KDM4A-I71AzF. Nature of the test: CASI: photo-crosslinking with HEK293T cell extracts, StrepTactin enrichment and LC-MS/MS proteomics.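 Note: lysates from HEK293T cells pretreated with a KDM4 inhibitor to raise proteome methylation, affinity-purified after ±UV, gel-resolved, trypsin-digested, with exclusive unique peptides per protein averaged per condition.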 Type of test: binding, human. To be noted: sheet "Final results but with 0.01".
Take B1: the “Fold change (+UV/-UV)” value amounted to 1.

In the case of B2, the “Fold change (+UV/-UV)” value turned out to be 0.

B3: the “Fold change (+UV/-UV)” value is recorded as 0.4.

With B4, the “Fold change (+UV/-UV)” value is reported as 0.9333.

Take B5: the “Fold change (+UV/-UV)” value is listed as 200.

On to B6, for which the “Fold change (+UV/-UV)” value worked out at 200.

Take B7: the “Fold change (+UV/-UV)” value was determined as 200.

For the molecule B8, the “Fold change (+UV/-UV)” value is given as 0.3333.

Regarding B9, the “Fold change (+UV/-UV)” value is recorded as 0.3333.

With B10, the “Fold change (+UV/-UV)” value was 1.4.
